One molecule from PMC12664034, “The E3 ubiquitin ligase SPRYD3-MYCBP2(PAM) regulates mitotic cell fate and ubiquitination of USP11 to control spindle assembly” (The Journal of Biological Chemistry, 2025) can be followed below.

The target of the experiment is T1, GST-USP11 (UniProt P51784 1-963).
T1 construct: USP11; pGEX4T1-GST-USP11; made by subcloning; the bought USP11 plasmid is Addgene 22566; also called recombinant USP11; source: E. coli Rosetta (DE3), purified (Glutathione Sepharose 4B)
Nature of the experiment: pull-down; MBP pull-down: 10 μg MBP-SPRYD3 (or equimolar MBP) mixed with 10 μg GST-tagged protein in NP-40 buffer, 4 °C 1 h; Amylose resin 2 h at 4 °C; five washes; Western blot. As to conditions: both partners purified.

T1 sequence (P51784 whole entry): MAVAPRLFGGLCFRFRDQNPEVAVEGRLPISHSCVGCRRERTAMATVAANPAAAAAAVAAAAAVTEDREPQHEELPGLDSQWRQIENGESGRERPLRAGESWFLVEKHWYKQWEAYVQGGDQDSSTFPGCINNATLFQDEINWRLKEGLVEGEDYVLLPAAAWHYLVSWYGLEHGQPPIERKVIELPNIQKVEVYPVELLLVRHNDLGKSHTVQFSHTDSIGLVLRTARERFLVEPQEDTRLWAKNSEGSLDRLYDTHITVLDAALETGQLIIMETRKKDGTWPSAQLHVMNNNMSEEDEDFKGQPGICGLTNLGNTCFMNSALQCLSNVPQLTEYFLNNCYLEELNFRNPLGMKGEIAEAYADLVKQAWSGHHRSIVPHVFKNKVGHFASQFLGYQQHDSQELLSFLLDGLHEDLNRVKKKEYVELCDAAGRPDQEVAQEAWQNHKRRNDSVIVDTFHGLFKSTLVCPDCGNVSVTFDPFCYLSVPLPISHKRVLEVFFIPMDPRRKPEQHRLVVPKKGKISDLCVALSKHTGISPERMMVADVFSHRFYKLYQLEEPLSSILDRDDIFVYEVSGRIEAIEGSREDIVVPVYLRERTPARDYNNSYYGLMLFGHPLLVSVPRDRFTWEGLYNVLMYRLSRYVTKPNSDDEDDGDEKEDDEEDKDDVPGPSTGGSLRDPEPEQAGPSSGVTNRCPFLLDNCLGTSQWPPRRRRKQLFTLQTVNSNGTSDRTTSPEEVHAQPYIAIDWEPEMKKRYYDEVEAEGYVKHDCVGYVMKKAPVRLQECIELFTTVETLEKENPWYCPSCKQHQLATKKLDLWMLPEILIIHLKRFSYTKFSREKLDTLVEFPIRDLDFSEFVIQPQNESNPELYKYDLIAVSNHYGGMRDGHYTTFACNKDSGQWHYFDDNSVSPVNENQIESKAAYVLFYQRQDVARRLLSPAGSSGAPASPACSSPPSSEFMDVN

B1: MBP-SPRYD3 (natural protein, UniProt Q8NCJ5 1-442, looked up)
chain: MRRTRRPRFVLMNKMDDLNLHYRFLNWRRRIREIREVRAFRYQERFKHILVDGDTLSYHGNSGEVGCYVASRPLTKDSNYFEVSIVDSGVRGTIAVGLVPQYYSLDHQPGWLPDSVAYHADDGKLYNGRAKGRQFGSKCNSGDRIGCGIEPVSFDVQTAQIFFTKNGKRVGSTIMPMSPDGLFPAVGMHSLGEEVRLHLNAELGREDDSVMMVDSYEDEWGRLHDVRVCGTLLEYLGKGKSIVDVGLAQARHPLSTRSHYFEVEIVDPGEKCYIALGLARKDYPKNRHPGWSRGSVAYHADDGKIFHGSGVGDPFGPRCYKGDIMGCGIMFPRDYILDSEGDSDDSCDTVILSPTARAVRNVRNVMYLHQEGEEEEEEEEEEEDGEEIEPEHEGRKVVVFFTRNGKIIGKKDAVVPSGGFFPTIGMLSCGEKVKVDLHPLSG
notes: SPRYD3; pMal-c2-MBP-SPRYD3; also called recombinant SPRYD3; source: E. coli Rosetta (DE3), purified (Amylose resin)
With B1, the binding result is recorded as “binds”.
